Laboratory results taken from paper PMC11807975, “The secreted host-cell protein clusterin interacts with PmpD and promotes Chlamydia trachomatis infection” (Frontiers in Cellular and Infection Microbiology, 2024).
“And” between values parts separate entries of the source, which are not always exact repeats. Equal entries are not always repeated.

Molecular target: the molecule itself
Test: native gel or EMSA; Blue Native-PAGE (Native PAGE Novex 3-12% Bis-Tris) of the SEC elution fraction of rD72 at 1.4 ml; Coomassie stain

B1: recombinant D72 (rD72), proteolytically processed fragment of Chlamydia trachomatis serovar E PmpD, residues 68-761, N-terminal 10x His-Tag (domain or fragment)
chain: DSQAEGQYRLIVGDPSSFQEKDADTLPGKVEQSTLFSVTNPVVFQGVDQQDQVSSQGLICSFTSSNLDSPRDGESFLGIAFVGDSSKAGITLTDVKASLSGAALYSTEDLIFEKIKGGLEFASCSSLEQGGACAAQSILIHDCQGLQVKHCTTAVNAEGSSANDHLGFGGGAFFVTGSLSGEKSLYMPAGDMVVANCDGAISFEGNSANFANGGAIAASGKVLFVANDKKTSFIENRALSGGAIAASSDIAFQNCAELVFKGNCAIGTEDKGSLGGGAISSLGTVLLQGNHGITCDKNESASQGGAIFGKNCQISDNEGPVVFRDSTACLGGGAIAAQEIVSIQNNQAGISFEGGKASFGGGIACGSFSSAGGASVLGTIDISKNLGAISFSRTLCTTSDLGQMEYQGGGALFGENISLSENAGVLTFKDNIVKTFASNGKILGGGAILATGKVEITNNSEGISFTGNARAPQALPTQEEFPLFSKKEGRPLSSGYSGGGAILGREVAILHNAAVVFEQNRLQCSEEEATLLGCCGGGAVHGMDSTSIVGNSSVRFGNNYAMGQGVSGGALLSKTVQLAGNGSVDFSRNIASLGGGALQASEGNCELVDNGYVLFRDNRGRVYGGAISCLRGDVVISGNKGRVEFKDNIATRLYVEETVEKVEEVEPAPEQKDNNELSFLGRAEQSFITAANQA
notes: In solution a high-molecular-weight oligomer (720-1048 kDa by Blue Native-PAGE, calculated 10- to 15-mer); also called rPmpD; His-PmpD; source: E. coli Origami, purified (Ni-NTA agarose, dialysed in PBS); not shown: 10xHis, N-terminal, kept; copies: 10-15
- stoichiometry N: 10 and 15
